The supplement of paper PMC12764529
± gives the half width of the 95% confidence interval.

Experiments:
[1] = folding stability dG unfold from trypsin proteolysis; higher = more stable
How it was run: (§1)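 K50 was inferred by Bayesian fitting of sequencing counts obtained after protease digestion of designed mini-proteins. Unfolding free energy was derived by comparison with a sequence-predicted unfolded-state K50 and a shared folded-state K50, for each protease or both combined. The mini-proteins were under 80 residues, had no cysteine, were carried in a PA-tagged cDNA display construct, and were kept only if AlphaFold2 dimer inter-PAE exceeded 15.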

[2] = folding stability dG unfold from chymotrypsin proteolysis; higher = more stable
How it was run: as §1

[3] = folding stability dG unfold (combined trypsin and chymotrypsin); higher = more stable
How it was run: as §1

Sequence	folding stability dG unfold [1]	folding stability dG unfold [2]	folding stability dG unfold [3]
SAGGSPKPVPVTITSVTSTSVEVYLPSTGATFTFNLNEEKTLTLPDGSKIYFTFNSDGSVTATVIEYGSAGG [r13_352_TrMRF]	5.03 ± 0.73 kcal/mol	4.88 ± 0.051 kcal/mol	4.83 ± 0.12 kcal/mol
SAGGSAGGSAGGSGPVPVTIKSVTTYPEKDVYKVETVPATPEPITITLSPEELSDVVILSAGGSAGGSAGGS [r4_51_JUSTAS]	-1.69 ± 0.57 kcal/mol	-0.437 ± 0.2 kcal/mol	-0.561 ± 0.19 kcal/mol
SAGGSAPSSGNVLEIKVEKLPDGTLVGTLTVKDPNSSNTTTIEITIPSSKTPEEAEAELKKIVEEASAGGSA [r15_181_JUSTAS]	2.11 ± 0.068 kcal/mol	2.09 ± 0.025 kcal/mol	2.11 ± 0.057 kcal/mol
SPGVTVEISTSTLPNGTRVTTLTTTTFDPQTGTTSTTTTVTVSPAPSSASPLRRELVTRPDGTLVPAALLSA [r9_898_JUSTAS]	-0.234 ± 0.13 kcal/mol	0.235 ± 0.16 kcal/mol	0.168 ± 0.076 kcal/mol
SAGGSAGGSAGGSSSSASVEVKTETSVSYDPSTGRTYTTTTSKYPLTNTTVTTTTTDPTSAGGSAGGSAGGS [r10_187_JUSTAS]	0.955 ± 0.03 kcal/mol	0.139 ± 0.15 kcal/mol	0.621 ± 0.17 kcal/mol
SAGGSAGGSAGSPLAQAVIDELKAQGYTVEAVTVTQPPGNAPVVVVTVKKPDGTRVVIDLSAGGSAGGSAGG [r11_780_JUSTAS]	2.74 ± 0.12 kcal/mol	2.182 ± 0.016 kcal/mol	2.39 ± 0.07 kcal/mol
SAGGSAGGSMTIPESEFKQMSEEELKKLLLENPEPVTVVTSDPEILERIKKIFEKLGIKITLESAGGSAGGS [r12_97_JUSTAS]	2.4 ± 0.11 kcal/mol	2.63 ± 0.12 kcal/mol	2.59 ± 0.14 kcal/mol
SAGGSAGGSSKNGKPKPTIKVEMPDKPGPHEIPIPESDPDEAKTLAEELAQKWPGVPVRIEPTSAGGSAGGS [r12_601_TrROS]	-0.293 ± 0.1 kcal/mol	0.989 ± 0.057 kcal/mol	0.582 ± 0.13 kcal/mol
SAGGSEALTKNLPGVKEIKIEVEPTEVALSPELAKLLPNLPGVKFTVPSVKIDIKIEYPGTPDGTLSAGGSA [r2_404_TrMRF]	0.133 ± 0.088 kcal/mol	-0.659 ± 0.37 kcal/mol	-0.053 ± 0.15 kcal/mol
SAGGSAGGSAKAKVIKTEEFELPNGVRIRIEYIEVDGKLIEKVEIEIKAESEEQKKALEKASAGGSAGGSAG [r3_158_TrROS_Hall]	1.29 ± 0.052 kcal/mol	1.82 ± 0.15 kcal/mol	1.71 ± 0.17 kcal/mol
SAGGKKKTIVLEVKVENLEEILKLAKEAAKAGDKVTVKVKLPDGEVYTVTVDVKTGKIVKVEKKKLPKSAGG [r13_873_TrROS_Hall]	1.98 ± 0.097 kcal/mol	3.3 ± 0.18 kcal/mol	2.81 ± 0.2 kcal/mol
SAGGSAGGSSLEEIAKKLGLKPGMRVRLSDGKVLEVPSLDDLKAALEAGLSLEELKKIEIEPVSAGGSAGGS [r12_430_TrROS_Hall]	1.13 ± 0.023 kcal/mol	1.68 ± 0.04 kcal/mol	1.42 ± 0.12 kcal/mol
SKKTVTIELYVPNMTPEQLRALLEALGYKVKKEEFDEDRGVVRLTVELPEDGTTITITIVRPPLPPGEKPSA [r9_1090_TrROS_Hall]	2.25 ± 0.12 kcal/mol	2.54 ± 0.046 kcal/mol	2.59 ± 0.12 kcal/mol
SAGGSAGGSAGGFTIKIETRPMPMFSKDGKPLAEMNMYRIKIEVPDMPPGLADKLIDLIQSAGGSAGGSAGG [r7_450_TrROS]	1.66 ± 0.11 kcal/mol	2.67 ± 0.097 kcal/mol	2.67 ± 0.22 kcal/mol
SAGGSVFESEKDLRVEVYKIKVGTTLGKEKNGKPKKPKFKEKEVLVVKVEVPLEDGTTLSAEFTFGSAGGSA [r2_218_TrMRF]	1.25 ± 0.13 kcal/mol	3.24 ± 0.073 kcal/mol	2.52 ± 0.26 kcal/mol
SAGGEKITAEELVEEIQKIFNENGMKPVAIEPMPDGGVFIHFKNPYMIMIDAEEGKIEIMPPEDMEDFSAGG [r13_717_TrROS]	1.04 ± 0.068 kcal/mol	1.49 ± 0.13 kcal/mol	1.09 ± 0.27 kcal/mol
SAVTLLSTEFVPEEGVVRLLFERPAPPDTTTFTFSVSVNGYPIESISLSVDPATNTATATATAKVPPGLSAG [r14_244_JUSTAS]	2.42 ± 0.16 kcal/mol	4.1 ± 0.11 kcal/mol	3.2 ± 0.22 kcal/mol
SAHITISIEVPLPNLKGQTPEEAREVAKDKAREIAKMFNPEFGIKVKEVEVEPHPDEGWLKVDITFEPKSAG [r14_310_TrROS]	0.998 ± 0.058 kcal/mol	0.596 ± 0.05 kcal/mol	0.824 ± 0.2 kcal/mol
SAGGSAGGSAGGMKIKNAEIVEVKEENGKKTLLVKNKETGKYYKITIDDNKITIEEVKVPSAGGSAGGSAGG [r7_940_TrROS_Hall]	2.21 ± 0.32 kcal/mol	4.13 ± 0.13 kcal/mol	3.87 ± 0.52 kcal/mol
SAGGMKIVSVEFDEETGEVYVKIEVPTPEELEALKKLPGEVRIVDKETGEVKVIKVKSIEELLELLKKSAGG [r13_604_TrROS_Hall]	1.86 ± 0.086 kcal/mol	2.18 ± 0.071 kcal/mol	2.05 ± 0.15 kcal/mol
SAGMKPEEVRVIEIPPGMTVEEIIEAIEKEGPLRIRVEGKELEFESKEDIEAAIRNAPEPVRIEVRRLSAGG [r19_95_TrROS_Hall]	0.865 ± 0.04 kcal/mol	1.05 ± 0.092 kcal/mol	1 ± 0.089 kcal/mol

Sequence	folding stability dG unfold [1]	folding stability dG unfold [2]	folding stability dG unfold [3]
SAGGSAGGSAEVEIEVDKETKELYIKDSNGKVKKIKVKVVKVEVKKPVVTLPKEELSEEELKSAGGSAGGSA [r18_59_TrROS_Hall]	0.818 ± 0.084 kcal/mol	-0.357 ± 0.17 kcal/mol	0.258 ± 0.33 kcal/mol
SAGGMLRIRIDGREIEIGMTVEEILAAIEKELGREISPELREALRKAKTPEEIVEALRKLGLKIEIESAGGS [r16_601_TrROS_Hall]	3.66 ± 0.08 kcal/mol	5.17 ± 0.086 kcal/mol	4.8 ± 0.087 kcal/mol
SAGGSAPSVFPFKAKFKDYDLEIKSITVYENGEVEINAIAYNPDGKKKVELNITLPYSEILDLLKSSAGGSA [r15_56_TrMRF]	2.35 ± 0.059 kcal/mol	2.68 ± 0.037 kcal/mol	2.55 ± 0.094 kcal/mol
SAGGSAGGSAGGMYRIKVTTKDGRERVIEVKPGEEITLEELRKAGLSEEEIERVEIEEVSAGGSAGGSAGGS [r10_565_TrROS_Hall]	1.89 ± 0.076 kcal/mol	1.85 ± 0.051 kcal/mol	1.84 ± 0.092 kcal/mol
SAGGSAGGDRIKIRFPDYRYEIEIPPGIESITTIQFHKDGWFTLTIPGNGQQIKIPIPPPDDDPSAGGSAGG [r6_370_TrROS]	1.23 ± 0.057 kcal/mol	1.73 ± 0.15 kcal/mol	1.51 ± 0.24 kcal/mol
SAGGSAGGSAGGKVYFLPDNTVVYELPDGLYLAVTVNENGEPSRTLYRVLSPTEIKPFPLSAGGSAGGSAGG [r7_423_TrMRF]	1.65 ± 0.024 kcal/mol	1.66 ± 0.034 kcal/mol	1.72 ± 0.035 kcal/mol
SAGGSAGGSPVLLAESVTTLPDGTVVRTRLVRLPDGTYLRETETYPPGGAPARAVERFDDPRLASAGGSAGG [r6_299_JUSTAS]	1.66 ± 0.039 kcal/mol	3.505 ± 0.023 kcal/mol	3.07 ± 0.059 kcal/mol
SAGGSAGGSAGEPEYVRVRIRVRRRVRNKETGKWEEKEVELTLVFPSKEEALKALEELGLSAGGSAGGSAGG [r11_984_TrROS_Hall]	3.99 ± 0.083 kcal/mol	4.049 ± 0.037 kcal/mol	4.02 ± 0.051 kcal/mol
SAGGSAGGPNMYMFKLEIKWYDPGKGKPVATRPITVMVPEDDLPEILKNLPPGFEIKNITIFPMSAGGSAGG [r6_777_TrROS]	2.16 ± 0.058 kcal/mol	2.5 ± 0.071 kcal/mol	2.45 ± 0.11 kcal/mol
SAGGSAGGSGGMTPTSRDYVLPNGEKLAVEETFTFPDGSSVTKVLDPKTGTTTTLPASTIASASAGGSAGGS [r12_488_JUSTAS]	0.451 ± 0.032 kcal/mol	0.321 ± 0.13 kcal/mol	0.394 ± 0.11 kcal/mol
SAGGSAGGSAGIDPPDIKLRVESELGPGPVRRLLVYLEGPGELVLVDVPADGSVSVSIFPSAGGSAGGSAGG [r11_55_TrMRF]	2.85 ± 0.18 kcal/mol	2.9 ± 0.28 kcal/mol	2.9 ± 0.23 kcal/mol
SAGGSAGGSAGGWIFIIEIDPDNGEIKINWPNGNSIKIPPEDLDNMPIEIKPIPPPPNDKSAGGSAGGSAGG [r7_99_TrROS]	1.83 ± 0.19 kcal/mol	1.88 ± 0.097 kcal/mol	1.87 ± 0.28 kcal/mol
SAGGSAGGSAGDDGDKKPEVKVKVKIEPTIIPSPNGELMLMWTLEIEYPGNGEKREFTFMSAGGSAGGSAGG [r17_59_TrROS]	1.33 ± 0.071 kcal/mol	1.92 ± 0.13 kcal/mol	1.58 ± 0.17 kcal/mol
SAGGSFEFKAEVFYDKEKDIYYVKIPYILKNTGKIIPIVKKVKAGDPIPVEKLAEKIAKELEELGISAGGSA [r2_221_TrMRF]	0.357 ± 0.079 kcal/mol	1.89 ± 0.066 kcal/mol	1.36 ± 0.1 kcal/mol
SAGGSAGKPRPIDIWIPLPPGAEEVKIEQLDIFIPDGWRIRIEEIEIDPEDPGYIRVTVKIQPLDDSAGGSA [r15_852_TrROS]	2.33 ± 0.1 kcal/mol	2.78 ± 0.045 kcal/mol	2.56 ± 0.16 kcal/mol
SARIRFPDGKPIDMEIVNIHRTPNGLTITIVLRHKDEYRVITFEIPPDGEIRIKSVERVPLPPGDPALVSAG [r14_13_TrROS]	1.46 ± 0.059 kcal/mol	3.37 ± 0.059 kcal/mol	2.96 ± 0.12 kcal/mol
SAGGSAGGSAMKVALVERPDGSPFLLVFDPDRPGVALLRPLDTDEVEVLPSELLKNLKITASAGGSAGGSAG [r3_451_TrMRF]	-0.509 ± 0.17 kcal/mol	0.68 ± 0.13 kcal/mol	0.344 ± 0.1 kcal/mol
SANTRSIPFPGSADDIVDEIKNLIDANPDVKIRIQPMDGEEYEIDIEGIEKIKVERMPDGWYMITVELPSAG [r14_807_TrROS]	0.283 ± 0.33 kcal/mol	1.63 ± 0.13 kcal/mol	1.16 ± 0.21 kcal/mol
SPFIMIRIDIERKNGKEVEMMFPVPANNIKNNLRDHLGPGYKVKITDIEPIDPEQFPPGQMIKIRYRVKPSA [r9_803_TrROS]	1.73 ± 0.048 kcal/mol	1.71 ± 0.13 kcal/mol	1.79 ± 0.18 kcal/mol
SAGMYTITISRLPGGEYEVRVTDAANGEEVARRPVASEEEARAEAERIAAEIAEADPDVEVRVSESDAESAG [r5_383_JUSTAS]	2.51 ± 0.066 kcal/mol	2.959 ± 0.023 kcal/mol	2.83 ± 0.04 kcal/mol
SAGGSAGGSAGMTVPPELSVTITRSPEGSLRVESPVPDRELTIPPDVPLTVSPDNVVTVASAGGSAGGSAGG [r17_49_JUSTAS]	0.451 ± 0.031 kcal/mol	0.783 ± 0.017 kcal/mol	0.655 ± 0.041 kcal/mol
